# Source: the nanobody polyreactivity screen of Harvey et al. (2022)
# Test: yeast display, Sf9 membrane polyspecificity reagent, FACS + sequencing; frameworks hold sequencing errors
# Procedure, shortened: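 In a synthetic yeast display library (Saccharomyces cerevisiae BJ5465), nanobody expression was induced with galactose for 36–48 hours. FACS gates were set low and high (top ~1%) using anti-HA fluorescence for expression and streptavidin fluorescence for binding of the Sf9 membrane reagent. Each polyreactivity label is drawn from the gate of origin.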
row,Sequence,polyreactivity (PSR sort gate)
1,QVQLVESGGGLVQAGGSLRLSCAASGSTFAYNDMGWYRQAQGKERELVADIRSGGNTYADSVKGRFTISRDNAKNTVYLQMNSLKPVDTAVYYCAVDGGEFSSYGYWGQGTQLTVSS,low polyreactivity
2,QVQLVESGGGLVQAGGSLRLSCAASGSIFKQYVMGWYRQAPGKEREFVARISKSGGSTYYADSVKGRFTISRDNAKNTVYLQMNSLKPEDTAVYYCAVASKQALQPWYDYWGQGTQVTVSS,high polyreactivity
3,QVQLVESGGGLVQAGGSLSLSSDASGSPLFSDAMGWYRQAPGKEREFVAAISRRGRSTYYADSVKGRFTISRDNAKNSVYFQMNSLIPEDTAVYYCAARDSSYNWYGYWGQGTQVTVSS,high polyreactivity
4,QVQLVESGGGLVQAGGSLRLSCAASGRIFAHYAMGWYRQAPGKERELVAAISSGGSTYYADSVKGRFTISRDNEKNTVYLQINSLKPEDTAVYYCAADYLYPPYYEFYYWGQGTQVTVSS,low polyreactivity
5,QDQLVESRGGLVQAGGSLRLSCAASGSISVKYAMGWYRQAPGKERELVAAISSDGNTYYADSVKGRFTISRDNAKYNVYLQMNSLKPEDTAVYYCAPAKVSWFGLKYYYWGQGTQVTVSS,high polyreactivity
6,QVQLVESGGGLVQAGGSLRLSCAASGRIFGGYTMGWYRQAPGKERELVAAITSGGSTNYADSVKGRFTISRDNAKNTVYLQMNSLKPEDTAVYYCAATYDGTYDYWGQGTQVTVSS,high polyreactivity
7,QVQLVESGGGLVQAGGSLRLSCAASGRIFKGYAIGWYRLAPGKERELVASITWRGGTTYYADSVKGRFTISRDNAKNTVYLQMNSLKPEDTAVYYCATTRYPRSYQEFGYWGQGTQVTVSS,high polyreactivity
8,QVQLEESRGGLVQAGGSLRLSCAASGFIIKHYAMGWYRQAPRKERELVAAISKRGGSTYYADSVKGRFTISRDNAKNTVYLQMNSLKPEDTAVYYCNAYLYVWHYPSGDEYDYWGQGTQVTVSS,high polyreactivity
9,QVQHEESGGGIVQAGGSLRLSSAASGRTFKYYDMGWFRQALGKERELVATISSSDSTNYADSVKGRFTISRDNAKNTVYLQLNSLKPEDTAVYYCNADFKLIYVFDYWGQGSQVTVSS,high polyreactivity
10,QVQLVESGGGLVQEGGSLGLSCAASGRIFIPYAMGWYRQETGKEREFVATIRWRGGRTYYADSVKGRFTISRDNAKNTVYLQLYSLKPEDTAVYYCAARSNALFRFDYWGQGTQVSVSS,high polyreactivity
11,QVQLVESGGGLVQAGGSLRLSCAASGLTFQTNAMGWYRQAPGKERELVAAISRRGSSTYYADSVKGRFTISRDNAKNTVYLQMNSLKPEDTAVYYCNAVRFLFIYPRYDYWGQGTQVTVSS,high polyreactivity
12,QVQLVESGGGLVQAGGSLRLSCAASGLTFYGNAMGWYRQAPGKERELVAAISRGGRTYYADSVKGRFTISRDNAKNTVYLQMNSLKPEDTAVYYCATVVSRGKQPFDMDYWGQGTQVTVSS,low polyreactivity
13,QVQLVESGGGLVQAGGSLRLSCAASGSTFVPNAMGWYRQAPGKERELVAAISSVGSTNYADSVKGRFTISRDNAKNTVYLQMNSLKPEDTAVYYCAVRYPWRYFKYGYWGQGSQVTVSS,low polyreactivity
14,QVQLVESGGGLVQAGGSLRLTCAASGRIFGRYAMGWYRQAPAKERELVATITYSGGTTYYADSVKGRFTISRDNAKNTVYLQMNSLKPEDTAVYYCNARSGRQLARYGYWGQGTQVTVSS,high polyreactivity
15,QVQLVESGGGLVQAGGSLRLSCAASGRISAYYAMGWYRQAPGKERELVAVITSGGRTNYADSVKGRFTISRDNAKNTVYLQMNSLKPEDTAVYYCAARSRVSPRYDYWGQGTQVTVSS,high polyreactivity
16,QVQLVESGGGLVQAGGSLRLSCAASGSTFPHYVMGWYRQAPGKERELVAGISWSGGSTYYADSVKGRFTISRDNAKNTVYLQMNSLKPEDTAVYYCAKVLTWRGYRYNYWGQGTQVTVSS,low polyreactivity
17,QVQLVESGGGLVQAGGSLRLSCPDSGRIFFLYAMGWYRQAPGKERELVAAITKSGGSTYADSVKGRFTISRDNAKNTVFLQMNSLIPEDTAVYYCAADLFTDLYDSWGQGTQVTVSS,low polyreactivity
18,QVQLVESGGGLVQAGGSLRLSCAASGRTFYLYGMGWYRQAPGKERELVAAITLSDGSTYYADSVKGRFTISRDNAKNTVYLQMKSLKPEDTAVYYCAARDYPFPYAMNYWGQGTQVTVSS,low polyreactivity
19,QVQLVESGGGLVQAGGSLRLSCAASGFIFQANAMGWYRQAPGKETELDAAIDDGDTTYADSVKGRFTISRDNAKNTVYLQMNSLKPEDTAGYYCATRRNRSYDYWGQGTQVTVSS,low polyreactivity
20,QVQLVESGGGLVQAGGSLRLICAASGRSFDYYAMGWYRQAPGKERDLVAAITSGGTTTYYADSVKGRFTISRDNAKNTVYVQMNSLKPEDYAVYYCAKYPYHIYHTDGDYWGQGTQVTVSS,low polyreactivity
21,QVQLVESGGGLVQAGGSLRLSCAASRLTFYGYGMGWYRQAPGKERELVASITSGGNTYYADSVKGRFTISRDNAKNTVYLRMNSLKPEDTAVYYCAVTAIALYYSSGYYWGQGTQVTVSS,low polyreactivity
22,QVQLVESGGGLVQAGGSLRLSCAASGSTFAASVMGWYRQAPVKERELVAAISTSGGGTYYADSVKGRFTISRDNAKNTVYLQMNSLIPEDTAVYYCAADYGSGSVSYDYWGQGTQVTVSS,low polyreactivity

row,Sequence,polyreactivity (PSR sort gate)
1,QVQLVESGGGIVQAGGSLRLSCAASGRIFWDYAMGWYRQAPGKERELVDVITLSGDSTYYADSVKGRFTISRDNAKNTVYLQMNSLKPEDTAVYYCAAARAIRQFWYVATFEYWGQGTQVTVSS,low polyreactivity
2,QLQLVESGGGLVQAGGSLRLSCAASGLTFYVYAMGWYRQAPCKERELVAAISSGGRTYYADSVKGRFTISRDNAKNTVYLQMNSLKPEDTAVYYCAAVRHRNYGYWGQGTQVTVSS,high polyreactivity
3,QVQLVESGGGLVPAGGSLRLSCAASGRTFPYYDMGWYRQAPGKERELVAAITSGGTTNYADSVKGRFTISRDNAKNTVYLQMNSLKPEDTAVYYCAAGSPWYYFSSYGYWGQGTQVTVSS,low polyreactivity
4,QVQLVESGGGLVQAGGSLRLSCAASGFTFYRYAMGWYRQAPGKERELVAAITRTGSTYYADSVKGRFTISRDNAKNTVYLQMNSLKPEDTAVYYCARRSLYFPSYGLYYWGQGTQVTVSS,high polyreactivity
5,QVQLVESGGGLVQAGGSLRLSCAASGRIFYFNAMAWYRQAPGKERELVAAISGSGGDTYYADSVKGRFTISRDNAKNTVYLQMNRLKPEETAVYYCAAEVYTWGQGTQVSVSS,low polyreactivity
6,QVQLVESGGGLVQAGGSLRLSCAASGSIFYPYAMGWYRQAPGKERELVAAINWGGTITYYADSVKGRFTISRDNAKNTVYLQMNSLKPEDTAVYYCAAKYKGYRYYYWGQGTQVTVSS,high polyreactivity
7,QVQLVESGGGLVQPGGSLRLSCAASGFIFYYYAMGWYRQAPGKERELVAVLTESGSSTYYADSVKGRFTISRDNAKNTVYLQMNSLKPEDTAVYYCNADFWPYTGKYDYWGQGTQVTVSS,low polyreactivity
8,QVQLVESGGGLVQEGGSLRLSCAASGFIFLYYAMGWYRQAPGKERELVASINRVGSTYYADSVKGRFTISRDNAKKTVYLQMNSLKPEVTAVYYCNARWIGRLTPYRRATYNYWGQVTQVTVSS,high polyreactivity
9,QVQLVESGGGLVQAGGSHRLSCAASGNAMGCYRQAPGKERELVAAITYGGTTTYYADSVKGRFTISRDNAKNTVYLQMNSLKPEDTAVYYCAADYVFVATPLRYDYWGQGTQVTVSS,low polyreactivity
10,QVQLVESGGGLVQAGGSLRLSCAASGGIVRLYGMGWDRQAPGKEMEFVAAISSGGGRTYYADSVKGRFTLSRDNAKNTVYLQMNSLKPEDTAVYYCNAELNWYYYIHLDYWGQGTQVTVSS,low polyreactivity
11,QVQLEDSGGGLFQAGGSLRLSCAASGNTFPVSYTMGWYIQAHRKEREFVAAISKDGGRTYYADSVKGRFTISRDNAKNTVYLQMNSLKPEDTAVYYCAARYSSSRGLSSEYWGQCTQVTVSS,high polyreactivity
12,QVQLVESGGGLVQAGGSLRLSCAASGFIFATNNMGWYRQAPGKERELVAASSTYYADSVKGRFTISRDNAKNTVYLQMNSLKPEDTAVYYCNALYRYLYRSGDYWGLGTQVTVSS,low polyreactivity
13,QVHLVESGGGLVQAGGSLRLSCAASGSIFTVYTMGWYRQAHGKERELVAAINSRGGTTYYADSVKGRFTISRDYAKNTVYLQMNSLKPEDTAVYYCAAKQRPKSYGPVHYYWGQGTQVTVSS,high polyreactivity
14,QVQLVESGGGLVQAGGSLRLSCAASGFIFRPYVMGWYRQAPGTERELVAAISRSGSSTYYADSVKGRFTISRDNAKNTVYLQMNSLKPEDTAVYYCARRTSQEFDYWGQGTQVTVSS,high polyreactivity
15,QVQLVESGGCKVQAGGSLRISCAASGRIFGYYMGWYRQAPGKEREMVARITFRGGSTYYADSVKGRFTNSRDNAKNNVYLQMNSLKPEDTAVYYCNARGKGGSTNRSDYWGQGTQVTVSS,high polyreactivity
16,QVQLVDSGGGLVQAGVSLRLSCAASGFIFYRYAMVWYRQAPGKERELVAAINWSGGGTYYADSVKGRFTISRDNAKNTVYLLMNSLKPEDTAVYYCAAVRSFRGSYWYEYWGQGSQVTVSS,high polyreactivity
17,QVQLVESGGGLVQAGGSLRLSCAASGIIFQPYAMGWYRQAPGKERELVAAITYSGDGTFYADSVKGRFTISRDNAKNTVYLQMNSLKPEDTAVYYCAAYPRDPYKEYDYWGQGTQVTVSS,low polyreactivity
18,QVQLVESGGGLVQAGGSLRLSCAASGRIFYYYAMGWYRQAPGKERELVAAINRSGGSTYYADSVKGRFTISRDNAKNTVYLQMNSLKPEDTAVYYCASYDYWGQGTQVTVSS,high polyreactivity
19,QVQLVESGGGLVQSGGSLRLSCAASGRTFSKNAMGWYRQAPGKERELVAAISGSGGSTYYADSVKGRFTISRDNAKNTVYLQMNSLKPEDTAVYYCADRYTVRRSGYWGQGTQVTVSS,high polyreactivity
20,QVQLVESGGGLVQAGGSLRLSCAASGFTFYRYAMGWYRQAPGKERELVAAITSRGTSTYYADSVKGRFTISRDNAKNTVYLQMNSLKPEDTAVYYCAVKGYRYGTRYDYWGQGTQVTVSS,high polyreactivity
21,QVQLVESGGCLVQAGGSLRLSCAASGRIIGANAMGWYRQAPGKERELVAAITKNGGRTYYADSVKGRFTISRDNAKNTVYLQMNSLKPEDTAVYYCARGLDVISYGYDYWVQGTQVTVSS,high polyreactivity
